Assay results: US8147838B2, “Peptide” (priority 2005, dated 2012)
No end group written: not given here.

target: T1, MHC class I allele A*0101 (A1) (Homo sapiens, UniProt P04439, A114D/A174V/A182V/D101N/D185E/E176A/E190D/L180R/Q94H/R68K/S129P/T187R/V100A/V91M/W191G); experiment: iTopia peptide binding assay, A*0101; settings: percent of positive control peptide binding; peptide at 1.11×10^−5M
Method: (§1) The 9 mers were tested for Peptide Binding, Off Rate and Affinity using iTopia Epitope Discovery System in accordance with the manufacturer's instructions. Briefly, 96 well microtitre plates coated with MHC molecules representing different MHC alleles are used to identify candidate peptides. […] Determinations are performed in duplicate using an ELISA plate reader and included allele specific positive controls.
(§2) i) Peptide Binding—This assay measures the ability of individual peptides to bind to the MHC molecules under standardized optimal binding conditions. The assay is performed for all the test peptides across the selected MHC alleles. The test peptides identified as “binders” are characterized further in terms of affinity and dissociation experiments.
(§3) Following a period of binding under optimal conditions, excess antibody is removed and a measurement of total fluorescence taken (D).
(§4) The binding of the test peptides to the MHC molecules was performed at 1.11×10^−5M of peptide under optimal, standardised test conditions. A control peptide was run in parallel on the same plate and at the same concentration as the test peptides.
(§5) The level of binding is expressed as a percent of positive control peptide binding for each allele.

| Sequence | Peptide binding, MHC Class I Molecule A*0101 |
| --- | --- |
| AALLAGRAL [Peptide 101] | 1 % of control |
| AALNLSGSR [Peptide 61] | 3 % of control |
| ACRDHMEGY [Peptide 196] | 3 % of control |
| ADMVTWLKE [Peptide 152] | 0 % of control |
| AELQGLPHI [Peptide 140] | 0 % of control |
| AFEHLPSLR [Peptide 69] | 1 % of control |
| AFSGSNASV [Peptide 81] | 2 % of control |
| AGAFEHLPS [Peptide 68] | 6 % of control |
| AGRALQGLR [Peptide 103] | 0 % of control |
| ASAVSAQPP [Peptide 25] | 2 % of control |
| CAYPEKMRN [Peptide 162] | 0 % of control |
| CSRGPAAGD [Peptide 3] | 0 % of control |
| DCDPILPPS [Peptide 172] | 0 % of control |
| DCHMADMVT [Peptide 150] | 0 % of control |
| DEVRAGAFE [Peptide 66] | 6 % of control |
| DLDCDPILP [Peptide 171] | 0 % of control |
| DNALKVLHN [Peptide 134] | 1 % of control |
| DPILPPSLQ [Peptide 173] | 0 % of control |
| DRLTCAYPE [Peptide 160] | 0 % of control |
| ECSEAARTV [Peptide 34] | 2 % of control |
| EDERQNRSF [Peptide 94] | 0 % of control |
| EGYHYRYEI [Peptide 199] | 0 % of control |
| ERQNRSFEG [Peptide 95] | 0 % of control |
| ESLHLEDNA [Peptide 131] | 2 % of control |
| ETEVVQGKD [Peptide 156] | 0 % of control |
| GAIFLLVLY [Peptide 184] | 0 % of control |

target: T2, MHC class I allele A*0201 (A2) (Homo sapiens, UniProt P04439, D140Y/D185E/D98H/E176V/E277Q/G131W/G231S/I119V/I121R/I166T/I218V/L300P/L318F/N151K/N90K/P208A/P217A/Q86G/Q94H/R138H/R169H/T345S); experiment: iTopia peptide binding assay, A*0201; settings: percent of positive control peptide binding; peptide at 1.11×10^−5M
Method: as §1, §2, §3, §4, §5

| Sequence | Peptide binding, MHC Class I Molecule A*0201 |
| --- | --- |
| AALLAGRAL [Peptide 101] | 38 % of control |
| AALNLSGSR [Peptide 61] | 6 % of control |
| ACRDHMEGY [Peptide 196] | 8 % of control |
| ADMVTWLKE [Peptide 152] | 6 % of control |
| AELQGLPHI [Peptide 140] | 9 % of control |
| AFEHLPSLR [Peptide 69] | 11 % of control |
| AFSGSNASV [Peptide 81] | 55 % of control |
| AGAFEHLPS [Peptide 68] | 10 % of control |
| AGRALQGLR [Peptide 103] | 2 % of control |
| ASAVSAQPP [Peptide 25] | 5 % of control |
| CAYPEKMRN [Peptide 162] | 11 % of control |
| CSRGPAAGD [Peptide 3] | 3 % of control |
| DCDPILPPS [Peptide 172] | 0 % of control |
| DCHMADMVT [Peptide 150] | 7 % of control |
| DEVRAGAFE [Peptide 66] | 9 % of control |
| DLDCDPILP [Peptide 171] | 0 % of control |
| DNALKVLHN [Peptide 134] | 5 % of control |
| DPILPPSLQ [Peptide 173] | 7 % of control |
| DRLTCAYPE [Peptide 160] | 6 % of control |
| ECSEAARTV [Peptide 34] | 4 % of control |
| EDERQNRSF [Peptide 94] | 2 % of control |
| EGYHYRYEI [Peptide 199] | 9 % of control |
| ERQNRSFEG [Peptide 95] | 1 % of control |
| ESLHLEDNA [Peptide 131] | 8 % of control |
| ETEVVQGKD [Peptide 156] | 1 % of control |
| GAIFLLVLY [Peptide 184] | 5 % of control |

target: T2, MHC class I allele A*0201 (A2); experiment: iScore multi-parametric analysis, A*0201; type: binding; settings: level of binding: >0.5, 0.25-0.5, <0.25
In short: (§6)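 Composite binding-quality index from multiparametric analysis of peptide–MHC half-life and ED50. Thresholds established on A*0201 (>0.5, 0.25–0.5, <0.25) are allele-specific and not necessarily applicable to A*0301, A*0101 or B*0702.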

| Sequence | iScore, MHC Class I Molecule A*0201 |
| --- | --- |
| VPTDLPAYV [Peptide 43] | 0.059 |
| VRAGAFEHL [Peptide 67] | 0 |
| VSLTYVSFR [Peptide 124] | 0 |
| YEINADPRL [Peptide 202] | 0.077 |
| YLNRKGIKK [Peptide 188] | 0.118 |
| YPEKMRNRV [Peptide 163] | 0 |
| YVSFRNLTH [Peptide 126] | 0 |

target: T1, MHC class I allele A*0101 (A1); experiment: iScore multi-parametric analysis, A*0101; type: binding; settings: integrates half-life and ED50
In short: as §6

| Sequence | iScore (iTopia), A*0101 |
| --- | --- |
| VPTDLPAYV [Peptide 43] | 0.098 |

same assay, conditions: level of binding: >0.5, 0.25-0.5, <0.25

| Sequence | iScore, MHC Class I Molecule A*0101 |
| --- | --- |
| VPTDLPAYV [Peptide 43] | 0.098 |
| VRAGAFEHL [Peptide 67] | 0 |
| VSLTYVSFR [Peptide 124] | 0 |
| YEINADPRL [Peptide 202] | 0 |
| YLNRKGIKK [Peptide 188] | 0 |
| YPEKMRNRV [Peptide 163] | 0 |
| YVSFRNLTH [Peptide 126] | 0 |

target: T3, MHC class I allele B*0702 (B7) (Homo sapiens, UniProt P01889); experiment: iTopia peptide binding assay, B*0702; settings: percent of positive control peptide binding; peptide at 1.11×10^−5M
Method: as §1, §2, §3, §4, §5

| Sequence | Peptide binding, MHC Class I Molecule B*0702 |
| --- | --- |
| AALLAGRAL [Peptide 101] | 59 % of control |
| AALNLSGSR [Peptide 61] | 3 % of control |
| ACRDHMEGY [Peptide 196] | 7 % of control |
| ADMVTWLKE [Peptide 152] | 8 % of control |
| AELQGLPHI [Peptide 140] | 0 % of control |
| AFEHLPSLR [Peptide 69] | 0 % of control |
| AFSGSNASV [Peptide 81] | 14 % of control |
| AGAFEHLPS [Peptide 68] | 7 % of control |
| AGRALQGLR [Peptide 103] | 1 % of control |
| ASAVSAQPP [Peptide 25] | 0 % of control |
| CAYPEKMRN [Peptide 162] | 3 % of control |
| CSRGPAAGD [Peptide 3] | 3 % of control |
| DCDPILPPS [Peptide 172] | 0 % of control |
| DCHMADMVT [Peptide 150] | 5 % of control |
| DEVRAGAFE [Peptide 66] | 12 % of control |
| DLDCDPILP [Peptide 171] | 3 % of control |
| DNALKVLHN [Peptide 134] | 0 % of control |
| DPILPPSLQ [Peptide 173] | 0 % of control |
| DRLTCAYPE [Peptide 160] | 3 % of control |
| ECSEAARTV [Peptide 34] | 0 % of control |
| EDERQNRSF [Peptide 94] | 4 % of control |
| EGYHYRYEI [Peptide 199] | 4 % of control |
| ERQNRSFEG [Peptide 95] | 1 % of control |
| ESLHLEDNA [Peptide 131] | 0 % of control |
| ETEVVQGKD [Peptide 156] | 1 % of control |
| GAIFLLVLY [Peptide 184] | 0 % of control |

target: T4, MHC class I allele A*0301 (A3) (Homo sapiens, UniProt P04439); experiment: iScore multi-parametric analysis, A*0301; type: binding; settings: level of binding: >0.5, 0.25-0.5, <0.25
In short: as §6

| Sequence | iScore, MHC Class I Molecule A*0301 |
| --- | --- |
| VPTDLPAYV [Peptide 43] | 0 |
| VRAGAFEHL [Peptide 67] | 0 |
| VSLTYVSFR [Peptide 124] | 0.025 |
| YEINADPRL [Peptide 202] | 0 |
| YLNRKGIKK [Peptide 188] | 0.065 |
| YPEKMRNRV [Peptide 163] | 0 |
| YVSFRNLTH [Peptide 126] | 0.086 |

target: T3, MHC class I allele B*0702 (B7); experiment: iScore multi-parametric analysis, B*0702; settings: level of binding: >0.5, 0.25-0.5, <0.25
In short: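 iScore integrates peptide-MHC complex half-life and ED50 into a single multi-parametric value reflecting overall binding quality.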

| Sequence | iScore, MHC Class I Molecule B*0702 |
| --- | --- |
| VPTDLPAYV [Peptide 43] | 0 |
| VRAGAFEHL [Peptide 67] | 0.085 |
| VSLTYVSFR [Peptide 124] | 0 |
| YEINADPRL [Peptide 202] | 0 |
| YLNRKGIKK [Peptide 188] | 0.089 |
| YPEKMRNRV [Peptide 163] | 0.242 |
| YVSFRNLTH [Peptide 126] | 0.21 |

target: T4, MHC class I allele A*0301 (A3); experiment: iTopia peptide binding assay, A*0301; settings: percent of positive control peptide binding; peptide at 1.11×10^−5M
Method: as §1, §2, §3, §4, §5

| Sequence | Peptide binding, MHC Class I Molecule A*0301 |
| --- | --- |
| AALLAGRAL [Peptide 101] | 0 % of control |
| AALNLSGSR [Peptide 61] | 13 % of control |
| ACRDHMEGY [Peptide 196] | 4 % of control |
| ADMVTWLKE [Peptide 152] | 4 % of control |
| AELQGLPHI [Peptide 140] | 1 % of control |
| AFEHLPSLR [Peptide 69] | 11 % of control |
| AFSGSNASV [Peptide 81] | 2 % of control |
| AGAFEHLPS [Peptide 68] | 3 % of control |
| AGRALQGLR [Peptide 103] | 2 % of control |
| ASAVSAQPP [Peptide 25] | 0 % of control |
| CAYPEKMRN [Peptide 162] | 4 % of control |
| CSRGPAAGD [Peptide 3] | 5 % of control |
| DCDPILPPS [Peptide 172] | 3 % of control |
| DCHMADMVT [Peptide 150] | 3 % of control |
| DEVRAGAFE [Peptide 66] | 7 % of control |
| DLDCDPILP [Peptide 171] | 4 % of control |
| DNALKVLHN [Peptide 134] | 0 % of control |
| DPILPPSLQ [Peptide 173] | 4 % of control |
| DRLTCAYPE [Peptide 160] | 5 % of control |
| ECSEAARTV [Peptide 34] | 0 % of control |
| EDERQNRSF [Peptide 94] | 4 % of control |
| EGYHYRYEI [Peptide 199] | 0 % of control |
| ERQNRSFEG [Peptide 95] | 1 % of control |
| ESLHLEDNA [Peptide 131] | 0 % of control |
| ETEVVQGKD [Peptide 156] | 3 % of control |
| GAIFLLVLY [Peptide 184] | 5 % of control |
